Measured values taken from patent publication US20140301945A1 (NEURIMMUNE, published 2014).

B1: NI-204.10A8 (antibody, human IgG1, V domains shown)
VH: EVQLVESGAEVKEPGSSVRVSCKTSGGSFNRHVITWVRQAPGQGLEWMGEIIPFFGTPKYAPKFQGRVTIIADASTSTFFLDVKSLTSEDTALYFCWIVVVSVVQRREDFWGQGILVTVSS
VL: EIVLTQSPSSLSASVGDTVTITCRSSQNISNYLSWFQHKPGKAPRILVYAASTLQTGVPSRFSGRGSGTIFTLSITSLQSEDYATYYCQQNDKIPRTFGQGTKVEIK
B2: NI-204.9F6 (antibody, human IgG1, V domains shown)
VH: EVQLVESGGGLVQPGGSLRLSCAVSGFTFDTFAMSWVRQAPGKGLEWVSAITASSSKTYYADSVKGRFTISRDNSRNTVYLRLSSLRADDTAVYFCARPKGAHSGLYIESAFDLWGPGTMVTVSS
VL: SYVLTQPPSVSVSAGQTASITCSADMLGDTYVSWYQKRPGQSPVLLIYQDSKRPSEIPERFSGSSSEDTATLTITGTQALDEAAYYCQVWDRRTTTYVFGPGTEVTVL
notes: also called NI-209.9F6
B3: NI-204.10D12 (antibody, V domains shown)
VH: EVQLVESGGDLVRPGGSLRLSCVASGFTFSNYWMHWVRQAPGQRPVWVSRTNTDGRNTAYADYAKGRFTISRDNAKSTLYLQLNSLRAEDTAVYFCARLRRNVADQITHNYYMDVWGKGTLVTVSS
VL: EIVLTQSPGSLAVSLGERATINCKSSQTVLYNNKNYLAWYQQKPGQPPKLLISWASSRESGVPDRFSGSGSGTDFTLTISSLQAEDVAVYYCQHYYGTPVTFGGGTKVEIK
B4: NI-204.12G7 (antibody, human IgG1, V domains shown)
VH: EVQLVESGAEVKKPGASVTLSCKASGYTFTAYYIHWVRQAREQGLEWMGVINPSTGTTFYAQNFPDRVSVTRDTSTSTVFMELHNLKSEDTAVYYCARAISEHGSGSYSPYYWGQGTLVTVSS
VL: SYVLTQPPSVSVSLGQMAAITCSGEALPKKYGYWYQQKPGQVPVLLIYRDVERPSGVPDRFSGSSSGTMVTLTISGVQAEDEADYYCLSADSSGTWVFGGGTKLTVL
B5: NI-204.67E12 (antibody, human IgG1, V domains shown)
VH: EVQLLESGGGLIRPGGSLRLSCAASGFTFSNYAMGWVRQAPGKGLEWVSAISGNGGSTYYGGSVKGRFTISRDKSKNTLYLQMNNLRADDTAVYFCAKLEAVAPTLTLRYFKHWGKGTLVTVSS
VL: DIQMTQSPSTLSASVGDRVTITCRASQSISRWLAWYQQRPGRAPDLLIYDASNLESGVPSRFSGSGSGTEFTLTISSLQPGDFATYYCQQYYSYVYTFGQGTKLEIK
B6: NI-204.7G5 (antibody, human IgG1, V domains shown)
VH: EVQLVESGGGVVQAGGSLRLSCVASGLTFSSYGMHWVRQAPGKGLEWVAVISYDGRSKFYADSVKGRFTISRDNSKNTLYLQMNSLRAEDAAVYYCANARVRDACSGTRCDKFGFYMDVWGKGTTVTVSS
VL: SYVLTQPPSVSVSPGQTARITCSGDALPKKYAYWYQQKSGQAPVLVIYEDIKRPSGIPERFSGSSSGTMATLTISGAQVEDEGDYYCYSADRSGNRWAFGGGTKLTVL
B7: NI-204.6H1 (antibody, human IgG1, V domains shown)
VH: QVQLQQWGAGRLRPSETLSLTCAVYGGSFNGYARTWIRQPPGKGLEWIGEIDHRENTNYNPSLKSRVTMSVDTSKNQFSLRLNSVTAADTAVYFCARGQKNAKDQHEGFRYWGRGTLVTVSS
VL: SYELTQPPSVSVSPGQTARITCSGDALPKQFAYWYQQKSGQAPKLVIFKDTERPSGIPERFSASSSGTKATLTISGVQAEDEADYYCQSADRTATSWVFGGGTKLTVL
B8: NI-204.11F11 (antibody, human IgG1, V domains shown)
VH: EVQLVESGGGLVKPGGSLRLSCAASGLPFSKAWMSWVRQAPGKGLEWVGRIKSQADGGAIDYATSVNGRFTITRDDSKNTLYLQMTSLKTEDTAVYYCTPGIILRFLEGTLRGMDVWGQGTTVTVSS
VL: EIVLTQSPPTLSLSPGERATLSCRASQTVSKYLAWYQQKPGQAPRLLVYDTSNRAIGIPPRFSGSGSGTDFTLTISTLEPEDFALYYCQQRSNWPPTFGQGTRLEIK
B9: NI-204.25H3 (antibody, human IgG1, V domains shown)
VH: QVQLQESGPGLVKPSETLSLTCTVSGGSISSSYWSWIRQPPGQGLEWIGYIYYSGNTYYNPSLKSRVTISIDTSKTQFSLNLTSVSAADTAVYYCARDGIPGAIGMDVWGQGTTVTVSS
VL: QSVLTQPPSVSAAPGQKVNISCSGSSSNIGNNYVSWYQRLPGTAPKLLIYDNNKRPSGIPDRFSGSKSGTSATLGITGLQTGDGADYYCATWDKSLIAVVFGGGTKLTVL
B10: NI-204.7B3 (antibody, human IgG1, V domains shown)
VH: EVQLVQSGGDIVQSGGSLRLSCAASGFVFSSNWMHWVRQRPGKGLEWISLINVDGRTTKYADSVKGRFTISRDNAKKTVYLQMDSLRAEDTAVYYCVKVEGLNWGPGTLVTVSS
VL: LPVLTQPPSVSVSPGQTARITCSGDELSKQYAYWYQKKSGQAPVMVVNEDTKRPPGIPERFSGSSSGTTSTLTISGVQAEDEADYYCQSADITGSWVFGGGTKLTVL
B11: NI-204.34A3 (antibody, human IgG1, V domains shown)
VH: EVQLVESGGGLVKPGGSLRVSCDVSGQRLSKAWMNWVRQTPTRGLEWVGLIKRDADGGTTEFAAPVEGRFTISRDDIQNTMTLHMTRLRVDDTGVYYCVAGDIGCIKENCRWGEGTTVTVSS
VL: SYELTQPPSVSVSPGQTARITCSGDALPTKFAFWYQQKSGQAPVLVIYEDDKRPSGIPQRFSGSSSGTTATLTISGAQEEDDADYYCYSKDSTNVERVFGTGTKLSVL

Molecular target: T1, wild type SOD1 from human erythrocytes (physiological dimers) (human, UniProt P00441 2-154)
T1 construct: Purified from human erythrocytes (Sigma-Aldrich); homodimer; control incubated in Tris acetate buffer without oxidants; also called Native SOD1; native human SOD1 dimers
Experiment: direct ELISA, physiological human SOD1 dimers coated at 34 µg/ml
Description: (§1) Non-specific binding sites were blocked for 1 hr at RT with PBS/0.1% Tween®-20 containing 2% BSA (Sigma-Aldrich, Buchs, Switzerland). […] Binding was determined using either a goat anti-mouse IgG antibody (Jackson immunoResearch, Newmarket, UK) or a donkey anti-human IgGγ antibody (Jackson immunoResearch, Newmarket, UK) conjugated with HRP, followed by measurement of HRP activity in a standard colorimetric assay. EC₅₀ values were estimated by a non-linear regression using GraphPad Prism software (San Diego, USA).

T1 sequence (P00441 2-154 limits assumed): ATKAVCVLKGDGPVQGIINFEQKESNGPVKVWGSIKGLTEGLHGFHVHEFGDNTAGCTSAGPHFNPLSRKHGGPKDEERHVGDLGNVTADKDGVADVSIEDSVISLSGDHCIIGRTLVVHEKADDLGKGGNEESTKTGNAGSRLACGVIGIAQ

Row | Binder | EC50 [nM]
1 | B1 | 19.1

Molecular target: T2, recombinant human SOD1 (biomol, Hamburg) (human, UniProt P00441 2-154, limits assumed)
T2 construct: Bought protein; also called recombinant human superoxide dismutase 1; Recombinant SOD1
Experiment: direct ELISA, recombinant human SOD1 coated at 30 µg/ml
Description: (§2) Binding was determined using either a goat anti-mouse IgG antibody (Jackson immunoResearch, Newmarket, UK) or a donkey anti-human IgGγ (Jackson immunoResearch, Newmarket, UK) antibody conjugated with HRP, followed by measurement of HRP activity in a standard colorimetric assay. The EC₅₀ values were estimated by a non-linear regression using GraphPad Prism (San Diego, USA) software.

T2 sequence (P00441 2-154 limits assumed): as above

Row | Binder | EC50 [nM]
2 | B2 | 117
3 | B3 | 35
4 | B1 | 2.2
5 | B4 | 0.36

Molecular target: T1, wild type SOD1 from human erythrocytes …
Experiment: direct ELISA, native human SOD1 dimers coated at 20 µg/ml
Description: (§3) Primary antibodies were diluted to the indicated concentrations and incubated 1 h at RT. Binding was determined using either a donkey anti-human IgG Fcγ-specific antibody conjugated with HRP or a goat anti-mouse IgG (H+L)-specific antibody conjugated with HRP, followed by measurement of HRP activity in a standard colorimetric assay.
(§4) The EC₅₀ of the different human-derived SOD1-specific antibodies for native human SOD1 dimers, denatured/oxidized human SOD1 and recombinant SOD1 was determined by direct ELISA with coating of the different SOD1 species at 20 μg/ml concentration.

Row | Binder | EC50 [nM]
6 | B5 | 0.1
7 | B6 | > 100
8 | B7 | > 100
9 | B8 | 50
10 | B9 | > 100
11 | B2 | > 100
12 | B10 | > 100
13 | B1 | > 100
14 | B11 | > 100
15 | B4 | > 40

Molecular target: T2, recombinant human SOD1 (biomol, Hamburg)
Experiment: direct ELISA, recombinant human SOD1 coated at 1 µg/ml
Description: as §2

Row | Binder | EC50 [nM]
16 | B2 | 134
17 | B3 | 81.4
18 | B1 | 18.7
19 | B4 | 3.1

Molecular target: T2, recombinant human SOD1 (biomol, Hamburg)
Experiment: direct ELISA, recombinant human SOD1 coated at 0.1 µg/ml

Row | Binder | EC50 [nM]
20 | B1 | 96

Molecular target: T2, recombinant human SOD1 (biomol, Hamburg)
Experiment: direct ELISA, recombinant human SOD1 coated at 10 µg/ml

Row | Binder | EC50 [nM]
21 | B1 | 2

Molecular target: T3, in vitro denatured human SOD1 (human, UniProt P00441 2-154)
T3 construct: also called Denatured SOD1; unfolded SOD1
Experiment: direct ELISA, denatured human SOD1 coated at 20 µg/ml
Description: as §3, §4

T3 sequence (P00441 2-154 limits assumed): as above

Row | Binder | EC50 [nM]
22 | B5 | 0.08
23 | B6 | 60
24 | B7 | 5
25 | B8 | 0.3
26 | B9 | 4
27 | B10 | 50
28 | B3 | 5
29 | B1 | > 100
30 | B11 | 10
31 | B4 | 0.07

Molecular target: T2, recombinant human SOD1 (biomol, Hamburg)
Experiment: direct ELISA, recombinant human SOD1 coated at 10 µg/ml
Remark: another data set of the same source
Description: as §2

Row | Binder | EC50 [nM]
32 | B2 | 148
33 | B3 | 24
34 | B1 | 2.1
35 | B4 | 0.39

Molecular target: T2, recombinant human SOD1 (biomol, Hamburg)
Experiment: direct ELISA, recombinant human SOD1 coated at 3.3 µg/ml
Description: Binding was determined using a donkey anti-human IgGγ antibody (Jackson immunoResearch, Newmarket, UK) conjugated with HRP, followed by measurement of HRP activity in a standard colorimetric assay.
The EC₅₀ values were estimated by a non-linear regression using GraphPad Prism (San Diego, USA) software.

Row | Binder | EC50 [nM]
36 | B2 | 105
37 | B3 | 10
38 | B1 | 2.7
39 | B4 | 0.4

Molecular target: T4, in vitro misfolded/aggregated human SOD1 (metal-catalyzed oxidation) (human, UniProt P00441 2-154, oxidized by metal-catalyzed oxidation (4 mM ascorbic acid, 0.2 mM CuCl2, 48 hours at 37 C); residues not stated)
T4 construct: also called Oxidized SOD1; in vitro aggregated human SOD1 dimers
Experiment: direct ELISA, oxidized human SOD1 coated at 20 µg/ml

T4 sequence (P00441 2-154 limits assumed): as above

Row | Binder | EC50 [nM]
40 | B5 | 0.06
41 | B6 | 5
42 | B7 | 4
43 | B8 | 0.4
44 | B9 | 2
45 | B2 | > 100
46 | B10 | > 100
47 | B3 | 6
48 | B1 | > 100
49 | B11 | 12
50 | B4 | 0.6

Molecular target: T4, in vitro misfolded/aggregated human …
Experiment: direct ELISA, in vitro aggregated human SOD1 coated at 34 µg/ml
Description: as §1

Row | Binder | EC50 [nM]
51 | B2 | 127
52 | B3 | 15
53 | B1 | 29.5
54 | B4 | 3.6

Molecular target: T2, recombinant human SOD1 (biomol, Hamburg)
Experiment: direct ELISA, recombinant human SOD1 coated at 1 µg/ml
Remark: another data set of the same source
Description: as §2

Row | Binder | EC50 [nM]
55 | B1 | 19

Molecular target: wild type SOD1 from human erythrocytes (physiological dimers) (human) (UniProt P00441)
Experiment: direct ELISA, native human SOD1 dimers coated at 20 µg/ml; Native SOD1 (not denatured, oxidized or recombinant)

wild type SOD1 from human erythrocytes (physiological dimers) (human), sequence (P00441 2-154 limits assumed): as above

Row | Binder | EC50 [nM]
56 | B3 | > 100

Molecular target: T2, recombinant human SOD1 (biomol, Hamburg)
Experiment: direct ELISA, recombinant human SOD1 coated at 0.1 µg/ml
Remark: another data set of the same source
Description: as §2

Row | Binder | EC50 [nM]
57 | B2 | 451
58 | B3 | 606
59 | B1 | 95.9
60 | B4 | 75.9

Molecular target: T2, recombinant human SOD1 (biomol, Hamburg)
Experiment: direct ELISA, recombinant SOD1 coated at 20 µg/ml
Description: as §3, §4

Row | Binder | EC50 [nM]
61 | B5 | 0.2
62 | B6 | 13
63 | B7 | 2
64 | B8 | 0.5
65 | B9 | 1
66 | B2 | > 100
67 | B10 | 42
68 | B3 | 7
69 | B1 | 1
70 | B11 | 2
71 | B4 | 0.06

Molecular target: T5, bovine serum albumin (bovine, UniProt P02769 25-607)
T5 construct: Control antigen in ELISA; also called BSA
Experiment: direct ELISA, BSA coated at 3.3 µg/ml
Excerpt: Non-specific binding sites were blocked for 2 hr at RT with PBS containing 2% BSA (Sigma-Aldrich, Buchs, Switzerland) and 0.5% Tween20.

T5 sequence (P02769 25-607 limits assumed): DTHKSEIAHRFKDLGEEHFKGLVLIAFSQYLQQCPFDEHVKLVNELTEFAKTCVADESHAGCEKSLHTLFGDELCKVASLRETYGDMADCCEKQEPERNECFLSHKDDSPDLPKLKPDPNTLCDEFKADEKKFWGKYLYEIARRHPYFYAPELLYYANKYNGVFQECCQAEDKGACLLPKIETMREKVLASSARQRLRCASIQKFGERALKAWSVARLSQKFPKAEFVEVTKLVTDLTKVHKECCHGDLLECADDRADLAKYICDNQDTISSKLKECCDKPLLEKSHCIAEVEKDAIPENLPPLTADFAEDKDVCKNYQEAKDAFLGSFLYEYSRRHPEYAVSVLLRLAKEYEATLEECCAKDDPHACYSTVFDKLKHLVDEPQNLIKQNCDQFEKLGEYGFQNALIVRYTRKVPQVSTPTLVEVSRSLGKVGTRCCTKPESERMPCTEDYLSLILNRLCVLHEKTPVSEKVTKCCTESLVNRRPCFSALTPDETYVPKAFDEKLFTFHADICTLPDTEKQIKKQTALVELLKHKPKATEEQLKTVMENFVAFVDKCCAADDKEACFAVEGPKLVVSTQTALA

Row | Binder | binding result
72 | B2 | no binding
73 | B3 | no binding
74 | B1 | no binding
75 | B4 | no binding
